US12303551B2, “Cellular immunotherapy compositions and uses thereof” (CERO THERPEUTICS HOLDINGS, INC., priority 2018, dated 2025)

Assays:
SCC152 target cells = assay: Phagocytosis of SCC152 by CD4+ T cell/CER, fluorescence microscopy with hybrid capture; format: cell-based; conditions: TRAF-domain CERs, 4 hours, 1:1:0.5 (CD8:CD4:target cell); versus CD4+ control + CD8+/E7 TCR
Method: (§1) FIG. 28 is a bar graph representing quantification of CD4+ T cell-CER mediated phagocytosis of SCC152 target cells. Results calculated as ((number of phagocytic target events)/(total number of effectors))*100 from 3×3 40× images, 4 hours after initiation of co-culture assay. CD8+ T cells transduced with HPV16 E7 TCR and CD4+ T cells transduced with selected CERs (CER5, CER17, CER19, CER21, CER23, CER26, CER27, CER103b, CER104, CER105, CER106, or CER116) were co-cultured with SCC152 squamous head and neck carcinoma target cells at a 1:1:0.5 ratio for 4 hours and imaged.
as §1, with “29” for “28”, “(median area ratio” for “((number”, “of” for “of phagocytic”, “events in effector cells*% phagocytosis)” for “events)/(total number of effectors))*100”
(§2) FIG. 55 is a bar graph representing quantification of CD4+ T cell-CER mediated phagocytosis of SCC152 target cells. Percent phagocytosis was calculated as ((number of phagocytic target events)/(total number of effector cells))*100. These numbers were calculated from 3×3 images captured by Keyence BZ-X710 fluorescence microscope at 40× resolution, 4 hours after initiation of co-culture assay. CD8+ T cells transduced with HPV16 E7 TCR and CD4+ T cells transduced with a selected CER (CER29, CER30, CER110, CER112, CER113, CER114, CER116, or CER117) were co-cultured with SCC152 target cells at a 1:1:0.5 ratio (CD8:CD4:target cell) for 4 hours and imaged.
as §2, with “56” for “55”, “Adjusted phagocytic index” for “Percent phagocytosis”, “(median area ratio” for “((number”, “of” for “of phagocytic”, “events in” for “events)/(total number of”, “cells*% phagocytosis).” for “cells))*100.”
Phagocytic activity of CD4+ T cell/CER+CD8+ T cell/HPV16 E7 TCR combinations co-cultured with SCC152 cells was visualized and quantified using KEYENCE BZ-X710 fluorescence microscope, […] and hybrid capture software.

SCC152 cells = assay: Elimination of GFP-expressing SCC152 target cells over time (quantification and time lapse imaging); format: cell-based; conditions: for elimination of SCC152 cells, time lapse imaging: 0 to 36 hrs, compared to the control; for elimination of SCC152 cells (GFP quantification): by 36 hrs, 1:1:1 ratio (CD8:CD4:target cell), compared to control
Outline: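 GFP-labelled SCC152 (HPV16+) target cells were co-cultured at 1:1:1 with CD8+ T cells carrying an HPV16 E7 TCR and with CD4+ T cells transduced with a chimeric CER or a control. Remaining target cells were counted by fluorescence imaging and automated software at 0, 12, 24, 36 h or 0, 24, 48 h.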

B1: CER112: Chimeric engulfment receptor: Tim4 binding, Tim4 transmembrane, TRAF6 and NFAM1 signaling; SEQ ID NO: 148 (protein)
chain: MSKGLLLLWLVTELWWLYLTPAASEDTIIGFLGQPVTLPCHYLSWSQSRNSMCWGKGSCPNSKCNAELLRTDGTRIISRKSTKYTLLGKVQFGEVSLTISNTNRGDSGVYCCRIEVPGWFNDVKKNVRLELRRATTTKKPTTTTRPTTTPYVTTTTPELLPTTVMTTSVLPTTTPPQTLATTAFSTAVTTCPSTTPGSFSQETTKGSAFTTESETLPASNHSQRSMMTISTDIAVLRPTGSNPGILPSTSQLTTQKTTLTTSESLQKTTKSHQINSRQTILIIACCVGFVLMVLLFLAFLMSLLNCENSCGSSQSESDCCVAMASSCSAVTKDDSVGGTASTGNLSSSFMEEIQGYDVEFDPPLESKYECPICLMALREAVQTPCGHRFCKACIIKSIRDAGHKCPVDNEILLENQLFPDNFAKREILSLMVKCPNEGCLHKMELRHLEDHQAHCEFALMDCPQCQRPFQKFHINIHILKDCPRRQVSCDNCAASMAFEDKEIHDQNCPLANVICEYCNTILIREQMPNHYDLDCPTAPIPCTFSTFGCHEKMQRNHLARHLQENTQSHMRMLALWNKKRMRGPGKDPTRKCPDPRSASSPKQHPSESVYTALQRRETEVYACIENEDGSSPTAKQSPLSQERPHRFEDDGELNLVYENL
modifications: CER112, amino acids 1-22 are signal peptide
- engulfment of SCC152 target cells (percent phagocytosis, adjusted phagocytic index) (SCC152 target cells): enhanced engulfment
- elimination of SCC152 cells, time lapse imaging (SCC152 cells): enhanced elimination of SCC152 cells
- elimination of SCC152 cells (GFP quantification) (SCC152 cells): nearly complete elimination

B2: CER114: Chimeric engulfment receptor: Tim4 binding, Tim4 transmembrane, TRAF6 and MERTK signaling; SEQ ID NO: 150 (protein)
chain: MSKGLLLLWLVTELWWLYLTPAASEDTIIGFLGQPVTLPCHYLSWSQSRNSMCWGKGSCPNSKCNAELLRTDGTRIISRKSTKYTLLGKVQFGEVSLTISNTNRGDSGVYCCRIEVPGWFNDVKKNVRLELRRATTTKKPTTTTRPTTTPYVTTTTPELLPTTVMTTSVLPTTTPPQTLATTAFSTAVTTCPSTTPGSFSQETTKGSAFTTESETLPASNHSQRSMMTISTDIAVLRPTGSNPGILPSTSQLTTQKTTLTTSESLQKTTKSHQINSRQTILIIACCVGFVLMVLLFLAFLMSLLNCENSCGSSQSESDCCVAMASSCSAVTKDDSVGGTASTGNLSSSFMEEIQGYDVEFDPPLESKYECPICLMALREAVQTPCGHRFCKACIIKSIRDAGHKCPVDNEILLENQLFPDNFAKREILSLMVKCPNEGCLHKMELRHLEDHQAHCEFALMDCPQCQRPFQKFHINIHILKDCPRRQVSCDNCAASMAFEDKEIHDQNCPLANVICEYCNTILIREQMPNHYDLDCPTAPIPCTFSTFGCHEKMQRNHLARHLQENTQSHMRMLAALRRRVQETKFGGAFSEEDSQLVVNYRAKKSFCRRAIELTLQSLGVSEELQNKLEDVVIDRNLLVLGKVLGEGEFGSVMEGNLKQEDGTSQKVAVKTMKLDNFSQREIEEFLSEAACMKDFNHPNVIRLLGVCIELSSQGIPKPMVILPFMKYGDLHTFLLYSRLNTGPKYIHLQTLLKFMMDIAQGMEYLSNRNFLHRDLAARNCMLRDDMTVCVADFGLSKKIYSGDYYRQGRIAKMPVKWIAIESLADRVYTSKSDVWAFGVTMWEITTRGMTPYPGVQNHEMYDYLLHGHRLKQPEDCLDELYDIMYSCWSADPLDRPTFSVLRLQLEKLSESLPDAQDKESIIYINTQLLESCEGIANGPSLTGLDMNIDPDSIIASCTPGAAVSVVTAEVHENNLREERYILNGGNEEWEDVSSTPFAAVTPEKDGVLPEDRLTKNGVSWSHHSTLPLGSPSPDELLFVDDSLEDSEVLM
modifications: CER114, amino acids 1-22 are signal peptide
- engulfment of SCC152 target cells (percent phagocytosis, adjusted phagocytic index) (SCC152 target cells): enhanced engulfment
- elimination of SCC152 cells, time lapse imaging (SCC152 cells): enhanced elimination of SCC152 cells
- elimination of SCC152 cells (GFP quantification) (SCC152 cells): nearly complete elimination

B3: CER113: Chimeric engulfment receptor: Tim4 binding, Tim4 transmembrane, TRAF6 and Baff-R signaling; SEQ ID NO: 149 (protein)
chain: MSKGLLLLWLVTELWWLYLTPAASEDTIIGFLGQPVTLPCHYLSWSQSRNSMCWGKGSCPNSKCNAELLRTDGTRIISRKSTKYTLLGKVQFGEVSLTISNTNRGDSGVYCCRIEVPGWFNDVKKNVRLELRRATTTKKPTTTTRPTTTPYVTTTTPELLPTTVMTTSVLPTTTPPQTLATTAFSTAVTTCPSTTPGSFSQETTKGSAFTTESETLPASNHSQRSMMTISTDIAVLRPTGSNPGILPSTSQLTTQKTTLTTSESLQKTTKSHQINSRQTILIIACCVGFVLMVLLFLAFLMSLLNCENSCGSSQSESDCCVAMASSCSAVTKDDSVGGTASTGNLSSSFMEEIQGYDVEFDPPLESKYECPICLMALREAVQTPCGHRFCKACIIKSIRDAGHKCPVDNEILLENQLFPDNFAKREILSLMVKCPNEGCLHKMELRHLEDHQAHCEFALMDCPQCQRPFQKFHINIHILKDCPRRQVSCDNCAASMAFEDKEIHDQNCPLANVICEYCNTILIREQMPNHYDLDCPTAPIPCTFSTFGCHEKMQRNHLARHLQENTQSHMRMLASWRRRQRRLRGASSAEAPDGDKDAPEPLDKVIILSPGISDATAPAWPPPGEDPGTTPPGHSVPVPATELGSTELVTTKTAGPEQQ
modifications: CER113, amino acids 1-22 are signal peptide
- engulfment of SCC152 target cells (percent phagocytosis, adjusted phagocytic index) (SCC152 target cells): enhanced engulfment
- elimination of SCC152 cells, time lapse imaging (SCC152 cells): enhanced elimination of SCC152 cells
- elimination of SCC152 cells (GFP quantification) (SCC152 cells): nearly complete elimination
